This is an account of results in US20200407435A1.

“And” between values parts separate entries of the source, which are not always exact repeats. Equal entries are not always repeated.

The target of this assay is rhAngiopoietin-2 (R&D systems cat 623-AN/CF) (human) (UniProt O15123). Put plainly: cell-based or functional assay.
rhAngiopoietin-2 (R&D systems cat 623-AN/CF) (human), sequence (O15123 19-496 limits assumed): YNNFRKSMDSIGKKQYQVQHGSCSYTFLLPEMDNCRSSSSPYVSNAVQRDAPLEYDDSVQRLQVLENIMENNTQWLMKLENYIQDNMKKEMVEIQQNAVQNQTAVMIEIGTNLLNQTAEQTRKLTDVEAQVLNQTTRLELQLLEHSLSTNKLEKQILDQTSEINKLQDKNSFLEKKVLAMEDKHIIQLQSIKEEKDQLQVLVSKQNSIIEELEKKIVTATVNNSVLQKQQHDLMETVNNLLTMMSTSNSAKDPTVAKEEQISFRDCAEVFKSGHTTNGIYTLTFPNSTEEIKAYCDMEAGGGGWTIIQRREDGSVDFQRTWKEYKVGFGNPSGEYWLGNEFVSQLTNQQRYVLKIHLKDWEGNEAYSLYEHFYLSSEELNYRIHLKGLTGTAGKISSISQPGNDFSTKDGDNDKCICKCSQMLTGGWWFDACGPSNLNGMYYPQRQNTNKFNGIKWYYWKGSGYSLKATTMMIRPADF

In the case of “Nesvacumab analog (Regeneron) (antibody)”, the Tie2 phosphorylation functional assay, EC50 is 4.4 nM and 2.2 nM.
